From the supplement of paper PMC10724198
± gives the standard deviation of the averaged measurements.

Assays:
[1] = tested on: Saccharomyces cerevisiae; test: protein stability index of tFT-peptide fusion (C-terminal peptide) (PSI (0-1 scale)); higher = more stable (slower turnover)
Description: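 MPS profiling in S. cerevisiae of the tFT-X12 degron library: putative degron peptides plus stable controls, 12 aa, fused to the C-terminus of a sfGFP-mCherry timer. Cells are FACS-sorted into 8 mCherry/sfGFP bins and deep-sequenced. PSI runs from 0 (unstable) to 1 (stable). Backgrounds are wild type, das1Δ and doa10Δ at 30 °C, and wild type, das1Δ, cdc34-1 and cdc53-1 at 37 °C; 2-3 technical replicates each.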

[2] = tested on: Saccharomyces cerevisiae; test: as above; settings: genetic background: wild type; temperature: 30 C
[3] = genetic background: cdc34-1, temperature: 37 C
[4] = genetic background: cdc53-1, temperature: 37 C
[5] = genetic background: das1 deletion, temperature: 30 C
[6] = genetic background: das1 deletion, temperature: 37 C
[7] = genetic background: doa10 deletion, temperature: 30 C
[8] = genetic background: wild type, temperature: 30 C
[9] = genetic background: wild type, temperature: 37 C
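Further: PSI is a weighted mean of sequencing reads over stability bins, variants kept only with over 10 reads, mCherry proximal and sfGFP distal, peptide attached via GGGS linker.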

| Sequence | protein stability index [1, 3] | protein stability index [1, 4] | protein stability index [1, 5] | protein stability index [1, 6] | protein stability index [1, 7] | protein stability index [1, 8] | protein stability index [1, 9] | protein stability index [2] |
| --- | --- | --- | --- | --- | --- | --- | --- | --- |
| GNRDLVNTSVEG | 0.679 ± 0.029 | 0.721 ± 0.011 | 0.619 ± 0.045 | 0.715 ± 0.051 | 0.6331 ± 0.006 | 0.633 ± 0.033 | 0.6989 ± 0.0025 | 0.547 ± 0.17 |
| GPVRSPPSPTPR | 0.674 ± 0.03 | 0.737 ± 0.0096 | 0.682 ± 0.015 | 0.73559 ± 0.00023 | 0.674 ± 0.024 | 0.66 ± 0.027 | 0.698 ± 0.014 | 0.727 ± 0.05 |
| GQFVISVRFLYE | 0.454 ± 0.045 | 0.503 ± 0.044 | 0.412 ± 0.024 | 0.5374 ± 0.0031 | 0.389 ± 0.0083 | 0.417 ± 0.024 | 0.516 ± 0.011 | 0.515 ± 0.068 |
| GRGVRLRVRLLL | 0.664 ± 0.023 | 0.73 ± 0.031 | 0.606 ± 0.022 | 0.7 ± 0.019 | 0.185 ± 0.014 | 0.217 ± 0.006 | 0.43 ± 0.04 | 0.292 ± 0.1 |
| GRVETIEFLFLR | 0.455 ± 0.0049 | 0.4335 ± 0.0015 | 0.368 ± 0.038 | 0.525 ± 0.0074 | 0.656 ± 0.012 | 0.394 ± 0.044 | 0.508 ± 0.022 | 0.464 ± 0.025 |
| GRWAFFTWLRWS | 0.553 ± 0.016 | 0.674 ± 0.016 | 0.62 ± 0.047 | 0.6825 ± 0.0042 | 0.175 ± 0.0041 | 0.177 ± 0.025 | 0.269 ± 0.047 | 0.261 ± 0.014 |
| GSDGVGGTVLYA | 0.685 ± 0.061 | 0.755 ± 0.014 | 0.634 ± 0.021 | 0.729 ± 0.015 | 0.638 ± 0.013 | 0.666 ± 0.023 | 0.728 ± 0.035 | 0.687 ± 0.037 |
| GSLVLSCLMSRA | 0.558 ± 0.04 | 0.603 ± 0.018 | 0.42 ± 0.034 | 0.573 ± 0.0029 | 0.431 ± 0.037 | 0.438 ± 0.012 | 0.537 ± 0.02 | 0.4872 ± 0.00045 |
| GTIFLIRVLLFG | 0.154 ± 0.0049 | 0.284 ± 0.026 | 0.222 ± 0.024 | 0.387 ± 0.029 | 0.171 ± 0.015 | 0.213 ± 0.023 | 0.357 ± 0.069 | 0.284 ± 0.028 |
| GVARALFLWKAV | 0.64 ± 0.032 | 0.709 ± 0.018 | 0.65 ± 0.022 | 0.7486 ± 0.0021 | 0.286 ± 0.0013 | 0.317 ± 0.03 | 0.464 ± 0.0088 | 0.379 ± 0.041 |
| GVLTVVLQVGVV | 0.299 ± 0.033 | 0.378 ± 0.053 | 0.309 ± 0.038 | 0.428 ± 0.019 | 0.282 ± 0.011 | 0.304 ± 0.02 | 0.407 ± 0.0063 | 0.393 ± 0.0095 |
| GVMICLDLLLSV | 0.482 ± 0.011 | 0.521 ± 0.021 | 0.377 ± 0.025 | 0.539 ± 0.014 | 0.361 ± 0.018 | 0.395 ± 0.017 | 0.528 ± 0.0073 | 0.468 ± 0.0081 |
| GVVCCGFFFLVV | 0.475 ± 0.012 | 0.525 ± 0.028 | 0.401 ± 0.024 | 0.57 ± 0.018 | 0.363 ± 0.0058 | 0.41 ± 0.04 | 0.528 ± 0.055 | 0.464 ± 0.016 |
| GWCLLRVLVLVW | 0.0502 ± 0.035 | 0.043 ± 0.0082 | 0.0937 ± 0.023 | 0.107 ± 0.0087 | 0.104 ± 0.024 | 0.0811 ± 0.02 | 0.0921 ± 0.035 | 0.175 ± 0.022 |
| GYRRCCHFLFTL | 0.671 ± 0.02 | 0.735 ± 0.035 | 0.622 ± 0.023 | 0.747 ± 0.00099 | 0.359 ± 0.023 | 0.375 ± 0.029 | 0.56 ± 0.0064 | 0.423 ± 0.034 |
| HHRLRQGLRRIN | 0.64 ± 0.039 | 0.7278 ± 0.0055 | 0.638 ± 0.0082 | 0.7023 ± 0.003 | 0.251 ± 0.0034 | 0.293 ± 0.0082 | 0.5161 ± 0.0011 | 0.462 ± 0.014 |
| HPPPTLVPPHPR | 0.64 ± 0.032 | 0.709 ± 0.031 | 0.674 ± 0.011 | 0.727 ± 0.0074 | 0.7045 ± 0.0028 | 0.681 ± 0.019 | 0.6803 ± 0.0027 | 0.616 ± 0.19 |

| Sequence | protein stability index [1, 3] | protein stability index [1, 4] | protein stability index [1, 5] | protein stability index [1, 6] | protein stability index [1, 7] | protein stability index [1, 8] | protein stability index [1, 9] | protein stability index [2] |
| --- | --- | --- | --- | --- | --- | --- | --- | --- |
| HRLQFKGYPICA | 0.243 ± 0.039 | 0.255 ± 0.067 | 0.235 ± 0.048 | 0.371 ± 0.015 | 0.18 ± 0.0058 | 0.223 ± 0.025 | 0.338 ± 0.0061 | 0.33 ± 0.0051 |
| HRPRPLLKLLAS |  | 0.596 ± 0.098 | 0.585 ± 0.083 | 0.67983 ± 0.0006 | 0.0522 ± 0.045 | 0.0779 ± 0.044 | 0.0284 ± 0.018 | 0.145 ± 0.011 |
| HSRRRRPTPQSL | 0.609 ± 0.047 | 0.65 ± 0.016 | 0.651 ± 0.036 | 0.636 ± 0.011 | 0.662 ± 0.014 | 0.64 ± 0.019 | 0.61 ± 0.016 | 0.571 ± 0.12 |
| HVCKLAMFQWYF | 0.6 ± 0.011 | 0.713 ± 0.031 | 0.609 ± 0.012 | 0.72211 ± 0.00042 | 0.2873 ± 0.0019 | 0.302 ± 0.02 | 0.533 ± 0.029 | 0.371 ± 0.018 |
| ICIFWLITGLWL | 0.465 ± 0.074 | 0.459 ± 0.026 | 0.336 ± 0.03 | 0.487 ± 0.019 | 0.304 ± 0.014 | 0.324 ± 0.013 | 0.4633 ± 0.0029 | 0.3884 ± 0.00079 |
| IFLCRNGAVFIC | 0.398 ± 0.07 | 0.7987 ± 0.0065 | 0.733 ± 0.016 | 0.872 ± 0.019 | 0.0808 ± 0.021 | 0.0798 ± 0.016 | 0.0995 ± 0.012 | 0.158 ± 0.015 |
| IFRVTGFPIYIF | 0.327 ± 0.045 | 0.36 ± 0.024 | 0.339 ± 0.021 | 0.4535 ± 0.0037 | 0.222 ± 0.014 | 0.233 ± 0.025 | 0.3522 ± 0.0011 | 0.297 ± 0.012 |
| IGFSPSFQLYSA | 0.726 ± 0.0078 | 0.756 ± 0.012 | 0.666 ± 0.0083 | 0.77318 ± 9.2e-05 | 0.6445 ± 0.0049 | 0.67 ± 0.016 | 0.747 ± 0.012 | 0.721 ± 0.0083 |
| IGILVTAVPVFD | 0.507 ± 0.057 | 0.518 ± 0.0058 | 0.386 ± 0.042 | 0.5522 ± 0.0021 | 0.343 ± 0.013 | 0.382 ± 0.021 | 0.529 ± 0.011 | 0.451 ± 0.012 |
| IIAGVWFLEILG | 0.4134 ± 0.0039 | 0.525 ± 0.009 | 0.333 ± 0.027 | 0.527 ± 0.012 | 0.308 ± 0.012 | 0.312 ± 0.022 | 0.497 ± 0.023 | 0.479 ± 0.015 |
| IIGCIAICLMVN | 0.0164 ± 0.0065 | 0.214 ± 0.25 | 0.0942 ± 0.042 | 0.0938 ± 0.019 | 0.0381 ± 0.015 | 0.0451 ± 0.016 | 0.0405 ± 0.027 | 0.0843 ± 0.012 |
| IKCVPLVWRLTV | 0.457 ± 0.0073 | 0.594 ± 0.045 | 0.534 ± 0.038 | 0.6384 ± 0.0023 | 0.109 ± 0.022 | 0.123 ± 0.02 | 0.1955 ± 0.001 | 0.272 ± 0.031 |
| IKIQPKKRISLI | 0.658 ± 0.056 | 0.707 ± 0.058 | 0.632 ± 0.039 | 0.702 ± 0.017 | 0.155 ± 0.0043 | 0.174 ± 0.043 | 0.391 ± 0.031 | 0.299 ± 0.0067 |
| ILAVMFEIYAIL | 0.422 ± 0.013 | 0.5124 ± 0.0015 | 0.349 ± 0.042 | 0.533 ± 0.0094 | 0.185 ± 0.018 | 0.228 ± 0.029 | 0.42 ± 0.023 | 0.3593 ± 0.0012 |
| ILCYVWLVFSGF | 0.225 ± 0.0092 | 0.311 ± 0.019 | 0.223 ± 0.029 | 0.382 ± 0.01 | 0.194 ± 0.0036 | 0.204 ± 0.032 | 0.369 ± 0.025 | 0.373 ± 0.022 |
| INHVIHAKLRFS | 0.629 ± 0.015 | 0.675 ± 0.082 | 0.643 ± 0.011 | 0.72 ± 0.03 | 0.11 ± 0.026 | 0.13 ± 0.03 | 0.249 ± 0.075 | 0.237 ± 0.066 |
